Here are results for four molecules from patent US20220265819A1 (GEN2 NEUROSCIENCE, published 2022).

For experiment [1], the target named is T1, Bovine serum albumin (bovine, UniProt P02769 25-607).
T1 construct: Negative control antigen in ELISA; also called BSA
Briefly: phage ELISA. The method, then:
(§1) 10.1 Phage ELISA: Supernatants prepared from bacterial cultures infected with phage displaying scFv were tested for binding to full length recombinant 2N4R tau (100 ng/well), target peptide (SEQ ID NO: 13) conjugated to BSA or transferrin (1 μg/well) or BSA (1% in TBS) using standard methods. Antigen was coated onto ELISA plates, then removed, and plates were blocked for 1 h with 5% dried milk in TBS. Samples were diluted 1:25 in 1% BSA/TBS then added to the ELISA plate for 1 h at room temperature (RT). Plates were then washed ×4 with TBS/0.1% Tween (TBST). Alpha-M13-HRP antibody (Abcam, Cambridge, UK) was added (1:5000 dilution in 5% milk/TBS) and incubated for 1 h at RT before washing ×4. TMB ELISA solution was added to each well for 10 min at RT, followed by 1 M sulphuric acid. OD was then measured at 450 nm.
(An ELISA detects its analyte on a solid surface through an enzyme-linked reagent.)

The target in experiment [2] is T2, antigen peptide [C]-SPVVSGDTSPRHLSN-amide (tau 396-410 with N-terminal cysteine) (human).
T2 construct: Not phosphorylated; Coated free, or conjugated through the N-terminal Cys to BSA or transferrin (phage ELISA); The N-terminal Cys is not part of tau; also called target peptide; short linear peptide
T2 peptide: CSPVVSGDTSPRHLSN-NH2
Briefly: phage ELISA, phage supernatant 1:25, anti-M13-HRP, n=1.
From the text: (§2) FIG. 7. A panel of phage display-derived anti-tau scFv bind to linear immunogen peptide and full length 2N4R tau in phage ELISA. Phage expressing scFv clones bind to the short linear peptide (SEQ ID NO: 13) (A) conjugated to BSA (black bars) or transferrin (white bars) and to full length recombinant 2N4R tau (B). […] Binding of phage was detected using an HRP-conjugated anti-alpha-M13 antibody and data shown are from a representative experiment (n=1).
as §1

For experiment [3], the target named is T3, full length recombinant human 2N4R tau (amino acids 1-441) (human, UniProt P10636 1-758).
T3 construct: Bought (rPeptide); recombinant, non-phosphorylated; also called recombinant tau
The experiment is described as follows: phage ELISA, tau 100 ng/well, phage supernatant 1:25, anti-M13-HRP, n=1.
From the text: as §2, §1

Experiment [4] deals with T3, full length recombinant human 2N4R tau …. Briefly: ELISA, HEK293F supernatant on coated tau. The method, then:
(§3) Antigen was removed from wells and the plates were then blocked for 1 hour at RT with 5% dried milk in 1×TBS. Blocking solution was removed. HEK293F cell supernatant (10 μg/mL, to 0.0001 μg/mL in 1% BSA/1×TBS) was added to relevant wells, and plates were incubated for 1 hour at RT with gentle shaking. Plates were then washed four times with TBS/0.1% Tween (TBST). Anti-rabbit IgG-HRP antibody (Sigma. St Louis, Mo., USA), diluted 1:5000 in 5% milk/TBS, was added to each well and plates were incubated for 1 hour at RT with gentle shaking before being washed four times with TBST. 3,3′,5,5′-tetramethylbenzidine (TMB) ELISA solution was added to each well and plates were incubated for 15 mins at RT. An equal volume of 1 M sulfuric acid was added to each well and OD was measured at 450 nm.

Experiment [5] shares this target. Briefly: ELISA, purified IgG on coated tau, half maximal signal. The method, then:
as §3, with “13.1 ELISA analyses: ELISA plates were coated with antigen (full length tau, 100 ng/well; or 1% BSA in 1×TBS) in 1× carbonate-bicarbonate buffer for 1 hour at 37° C. Antigen” for “Antigen”, “1×TBS (200 μl/well).” for “1×TBS.”, “removed, diluted IgG” for “removed. HEK293F cell supernatant”, “(Sigma,” for “(Sigma.”, “TBST. 25 μL” for “TBST.”, “RT, an” for “RT. An”
Data were plotted as log concentration of IgG against ELISA signal (OD) and EC₅₀ values were calculated using a four parameter logistic equation with variable slope using GraphPad Prism (GraphPad Software Inc, La Jolla, Calif., USA).

Experiment [6] concerns the target T1, Bovine serum albumin. The experiment is described as follows: ELISA on 1% BSA, HEK293F supernatant, anti-rabbit IgG-HRP, n=1. On the procedure:
FIG. 9. A panel of anti-tau IgG bind to linear immunogen peptide and full length recombinant 2N4R tau in ELISA format. […] Binding of anti-tau IgG was detected using an HRP-conjugated anti-rabbit secondary antibody and data shown are from a representative experiment (n=1).
as §3

Where no end group is shown, it is not given here.

T1 sequence (P02769 25-607 limits assumed): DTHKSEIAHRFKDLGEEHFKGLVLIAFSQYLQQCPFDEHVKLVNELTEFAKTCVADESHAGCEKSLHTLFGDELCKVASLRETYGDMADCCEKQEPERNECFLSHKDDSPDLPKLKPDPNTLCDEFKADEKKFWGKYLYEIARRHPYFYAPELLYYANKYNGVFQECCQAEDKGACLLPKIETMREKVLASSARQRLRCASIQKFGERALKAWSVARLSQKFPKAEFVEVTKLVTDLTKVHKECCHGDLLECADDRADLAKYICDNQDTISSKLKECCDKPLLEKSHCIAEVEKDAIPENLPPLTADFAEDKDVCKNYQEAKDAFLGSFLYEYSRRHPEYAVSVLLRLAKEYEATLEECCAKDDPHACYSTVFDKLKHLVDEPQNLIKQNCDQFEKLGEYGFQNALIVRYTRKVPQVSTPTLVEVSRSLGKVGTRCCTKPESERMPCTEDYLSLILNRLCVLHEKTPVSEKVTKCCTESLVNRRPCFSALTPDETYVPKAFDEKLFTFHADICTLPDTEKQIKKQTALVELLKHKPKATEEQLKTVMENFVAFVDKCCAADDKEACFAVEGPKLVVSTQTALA
T3 sequence (P10636 other isoform, or with tags, fused parts or gaps limits assumed): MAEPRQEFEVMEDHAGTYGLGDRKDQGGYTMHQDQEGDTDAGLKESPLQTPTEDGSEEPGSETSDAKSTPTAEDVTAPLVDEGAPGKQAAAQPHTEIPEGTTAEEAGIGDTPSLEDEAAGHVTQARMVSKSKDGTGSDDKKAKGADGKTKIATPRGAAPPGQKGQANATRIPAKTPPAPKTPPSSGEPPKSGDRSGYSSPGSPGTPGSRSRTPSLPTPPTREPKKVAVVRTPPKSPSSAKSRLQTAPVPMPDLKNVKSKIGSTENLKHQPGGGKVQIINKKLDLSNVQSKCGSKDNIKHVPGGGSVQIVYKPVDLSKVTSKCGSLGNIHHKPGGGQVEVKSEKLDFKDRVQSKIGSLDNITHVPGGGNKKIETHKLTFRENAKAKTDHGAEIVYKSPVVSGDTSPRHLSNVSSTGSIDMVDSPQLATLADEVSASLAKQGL

B1: Clone 11 human scFv (phage displayed) (scFv, V domains shown)
VH: QVQLQQWGGGLVKPSETLSLTCGVSGGSFNDYYWTWIRQPQGKGLEWIGEINHVGSSRYNPSLGSRVTMSVDTSKSQFSLTLTAVTAADTAIYYCTRGRKTRRVKFFSRYSRDWFDPWGQGSRVTVSS
VL: VMTQSPATLSVSPGERATLSCRASQSVSSNLAWYQQKPGQAPRLLIYGASSRATGIPDRFSGSGSGTDFTLTISRLEPEDFATYYCQQLNSYPFTFGPGTKVDIK
notes: also called rx7; C6
Take B1: the binding result with Bovine serum albumin [1] is given as “no binding (tested: 1:25 phage supernatant)”; in experiment [2] it was “binds”; in experiment [3] it was “binds”.

B2: Clone 12 human scFv (phage displayed) (scFv, V domains shown)
VH: B1 VH
VL: MTQSPSSLSASVGDRVTITCRASQGISNYLAWYQQKPGKVPKLLIYAASTLQSGVPSRFSGSGSGTDFTLTISSLQPEDVATYYCQKYNSAPFTFGPGTKVDIK
notes: also called rx8; H11
Consider B2, for which the binding result in the experiment with Bovine serum albumin [1] was “no binding (tested: 1:25 phage supernatant)”; in experiment [2], “binds”; in experiment [3] it was “binds”.

B3: Clone 9 human scFv (phage displayed) (scFv, V domains shown)
VH: VQLVESGGGFVQPGGSLRLSCAASGFTFTDYGIHWVRQAPGKGLEWVAVISHDGSHKYYSDSVKGRSTISRDSSDNTVSLQLDGLRADDTALYYCAKDLPQTGALDFWGRGTLITVSS
VL: MTQSPSSLSASVGDRVTITCQASQDISNYLNWYQQKPGKAPKLLIYDASNLETGVPSRFSGSGSGTDFTFTISSLQPEDFATYYCQQANSFPITFGQGTRLEIK
notes: also called rx2; E5
Turning to B3, the binding result was “no binding (tested: 1:25 phage supernatant)” in the experiment with Bovine serum albumin [1], “binds” in experiment [2] and “binds” in experiment [3].

B4: Clone 1 rabbit monoclonal IgG (antibody, V domains shown)
VH: QSLEESGGGLVKPGGTLTLTCTVSGFSLNNYDMSWVRQAPGKGLEWIGTVSTTYRRYYASWAKGRFTISKTSSTTVDLKMTSLTTEDTATYFCAASGIWGPGTLVTVSL
VL: AQVLTQTTSPVSAAVGGTVTINCQSSQRVYSNYLAWYQQKPGQPPKRLIFLASTLESGVPSRFSGSGSGTQFTLTISDLECDDAATYYCAGTYTGSIWAFGGGTEVVVKG
notes: Rabbit IgG expressed in HEK293F (pRab293); also called P1-D4; #28
With B4, in experiment [4], the “OD (ELISA)” value came out at 0.3 OD. Also, the EC50 (in general, the concentration that produces a half-maximal response) in experiment [5] turned out to be 0.73 nM. Besides, in the experiment with Bovine serum albumin [6], the binding result is on record as “no binding (tested: supernatant 1:50)”.
